Target: FLAG-transferrin fusion (pREX1235): modified transferrin (mTf) with a FLAG Tag at the N-terminus and the human GPI sequence at the C-terminus, expressed in HEK-293 cells (human) (UniProt P02787)
Experiment: FACS of transfected HEK-293 cells with mouse anti-FLAG BioM2 and goat anti-mouse-APC

UniProt P02787, sequence (P02787 other isoform, or with tags, fused parts or gaps limits assumed): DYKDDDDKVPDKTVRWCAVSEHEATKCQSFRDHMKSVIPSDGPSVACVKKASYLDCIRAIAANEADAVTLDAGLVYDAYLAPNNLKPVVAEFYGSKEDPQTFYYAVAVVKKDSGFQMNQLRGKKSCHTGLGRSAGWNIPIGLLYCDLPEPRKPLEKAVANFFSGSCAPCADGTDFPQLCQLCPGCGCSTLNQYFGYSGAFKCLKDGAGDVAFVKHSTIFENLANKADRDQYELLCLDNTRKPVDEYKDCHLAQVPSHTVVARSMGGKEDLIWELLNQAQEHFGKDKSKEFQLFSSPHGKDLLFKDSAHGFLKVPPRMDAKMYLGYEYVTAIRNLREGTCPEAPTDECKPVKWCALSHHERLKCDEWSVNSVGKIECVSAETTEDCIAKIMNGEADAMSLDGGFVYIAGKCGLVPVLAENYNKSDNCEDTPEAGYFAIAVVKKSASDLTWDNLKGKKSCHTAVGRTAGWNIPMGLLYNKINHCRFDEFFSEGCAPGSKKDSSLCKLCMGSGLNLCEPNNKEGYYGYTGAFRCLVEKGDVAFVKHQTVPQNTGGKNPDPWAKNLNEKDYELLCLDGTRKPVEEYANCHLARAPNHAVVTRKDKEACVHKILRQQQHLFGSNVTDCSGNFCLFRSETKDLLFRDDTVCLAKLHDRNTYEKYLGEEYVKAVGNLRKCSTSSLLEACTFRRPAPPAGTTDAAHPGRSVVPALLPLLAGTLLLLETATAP

fold increase in staining relative to mock-transfected cells: 4 fold
Substance: mouse anti-FLAG BioM2 (Sigma) (antibody)

— patent publication US20110086768A1
